These results are taken from publication doi:10.1101/480269v2.

Assay in all cases: purified protein
What all share (settings): Mg2+ as the activating cation

Substrate in data set [1]: NC(=O)C1=CN([C@@H]2O[C@H](COP(=O)(O)OP(=O)(O)OC[C@H]3O[C@@H](n4cnc5c(N)ncnc54)[C@H](O)[C@@H]3O)[C@@H](O)[C@H]2O)C=CC1
Substrate in data set [2]: NC(=O)c1ccc[n+]([C@@H]2O[C@H](COP(=O)(O)OP(=O)(O)OC[C@H]3O[C@@H](n4cnc5c(N)ncnc54)[C@H](O)[C@@H]3O)[C@@H](O)[C@H]2O)c1
Substrate in data set [3]: NC(=O)c1ccc[n+]([C@@H]2O[C@H](COP(=O)([O-])O)[C@@H](O)[C@H]2O)c1
Substrate in data set [4]: Nc1ncnc2c1ncn2[C@@H]1O[C@H](COP(=O)(O)O)[C@@H](O)[C@H]1O

B1: UshA (Escherichia coli K-12) (protein)
chain: YEQDKTYKITVLHTNDHHGHFWRNEYGEYGLAAQKTLVDGIRKEVAAEGGSVLLLSGGDINTGVPESDLQDAEPDFRGMNLVGYDAMAIGNHEFDNPLTVLRQQEKWAKFPLLSANIYQKSTGERLFKPWALFKRQDLKIAVIGLTTDDTAKIGNPEYFTDIEFRKPADEAKLVIQELQQTEKPDIIIAATHMGHYDNGEHGSNAPGDVEMARALPAGSLAMIVGGHSQDPVCMAAENKKQVDYVPGTPCKPDQQNGIWIVQAHEWGKYVGRADFEFRNGEMKMVNYQLIPVNLKKKVTWEDGKSERVLYTPEIAENQQMISLLSPFQNKGKAQLEVKIGETNGRLEGDRDKVRFVQTNMGRLILAAQMDRTGADFAVMSGGGIRDSIEAGDISYKNVLKVQPFGNVVVYADMTGKEVIDYLTAVAQMKPDSGAYPQFANVSFVAKDGKLNDLKIKGEPVDPAKTYRMATLNFNATGGDGYPRLDNKPGYVNTGFIDAEVLKAYIQKSSPLDVSVYEPKGEVSWQ
For B1, the Km stood at 7.0 ± 0.8 µM in the data set “purified protein [1]”, 5.3 ± 0.6 µM in the data set “purified protein [2]”, 11.1 ± 1.3 µM in the data set “purified protein [3]” and 1.2 ± 0.1 µM in “purified protein [4]”. Also, the kcat in the data set “purified protein [1]” turned out to be 10.0 ± 0.2 s⁻¹; in “purified protein [2]”, 19.3 ± 0.9 s⁻¹; in the data set “purified protein [3]” it was 1492 ± 31 s⁻¹; in “purified protein [4]”, 405 ± 4 s⁻¹.

What is called Km is the concentration of substrate that gives half-maximal velocity. By kcat is commonly meant the maximal rate divided by the concentration of active sites.
